Kd, koff and kon data for 16 molecules are collected here from patent US20180030149A1 (AVEO PHARMACEUTICALS, published 2018).

The target of test [1] is T1, recombinant human ErbB3 monomeric protein (cleaved rhErbB3) (human, UniProt P21860 20-643, limits assumed).
T1 construct: Monomer made by protease cleavage of the Fc fusion; also called Monomeric ErbB3
The test can be described thus: SPR Biacore 37 C; purified antibody captured on anti-human Fc, cleaved rhErbB3 0.3125-5.0 nM. The protocol:
(§1) The analyses were performed at 37° C. using PBS (Invitrogen, Catalog No. 14040-133) containing 0.05% surfactant P20 (Biacore, Catalog No. BR-1000-54) as running buffer.
(§2) The antibodies were captured in individual flow cells at a flow rate of […]. Injection time was varied for each antibody to yield an Rₘₐₓ between 30 and 60 RU. […] The dissociation phase was monitored for up to 1200 seconds. The surface was then regenerated with two 60 second injections of Glycine pH 2.25 (made from Glycine pH 2.0 (Biacore, Catalog No. BR-1003-55) and pH 2.5 (Biacore, Catalog No. BR-1003-56)) at […].
The binding affinities and kinetics of certain purified monoclonal antibodies were also determined. To further characterize certain antibodies, the surface plasmon resonance experiments described above were conducted using concentrations of cleaved rhErbB3 between 0.3125 nM and 5.0 nM (a 2-fold serial dilution).
For orientation: SPR reads the build-up and loss of mass on a sensor chip optically.

Test [2] has as its target T1, recombinant human ErbB3 monomeric …. Kind of test: SPR Biacore 37 C; supernatant antibody captured on anti-human Fc, cleaved rhErbB3 injected. The protocol: as §1, §2
Kinetic parameters were determined using the kinetic function of the BIAevaluation software (Biacore) with double reference subtraction. Kinetic parameters for each antibody, kₐ (association rate constant), kd (dissociation rate constant) and KD (equilibrium dissociation constant) were determined.

B1: Sh24C05-25 (antibody, human IgG1, kappa, V domains shown)
VH: QVQLVESGGGLVKPGGSLRLSCAASGFTFSDYAMSWIRQAPGKGLEWVSTISDGGTYTYYPDNVKGRFTISRDNAKNSLYLQMNSLRAEDTAVYYCAREWGDYDGFDYWGQGTLVTVSS
VL: DIQMTQSPSSLSASVGDRVTITCRASQEISGYLSWFQQKPGKAPKSLIYAASTLDSGVPSRFSGSGSGTDFTLTISSLQPEDFATYYCLQYDSYPYTFGQGTKLEIKR
notes: Humanized, human IgG1/kappa
By Kd is commonly meant a measure of binding affinity in units of concentration. For orientation: koff means a measure of how fast the partners let go of each other. As a reminder, the kon is the rate constant with which the complex forms. As for B1, in test [1], the Kd came out at 0.13 nM, the koff is 0.0005 s⁻¹ and the kon stood at 4e+06 M⁻¹ s⁻¹. In test [2], the dissociation constant (Kd) was 0.175 nM, the koff amounted to 0.000459 s⁻¹ and the kon was 2.63e+06 M⁻¹ s⁻¹.

B2: Sh24C05-17 (antibody, human IgG1, kappa, V domains shown)
VH: QVQLVESGGGVVQPGRSLRLSCAASGFTFSDYAMSWVRQAPGKGLEWVATISDGGTYTYYPDNVKGRFTISRDNSKNTLYLQMSSLRAEDTAVYYCAREWGDYDGFDYWGQGTLVTVSS
VL: DIQMTQSPSSLSASVGDRVTITCRASQEISGYLSWLQQKPGGAIKRLIYAASTLDSGVPSRFSGSGSGSDYTLTISSLQPEDFATYYCLQYDSYPYTFGQGTKLEIKR
notes: Humanized, human IgG1/kappa
As to B2, in test [2], the Kd was 0.15 nM, the koff worked out at 0.000417 s⁻¹ and the kon was 2.79e+06 M⁻¹ s⁻¹.

B3: Sh24C05-34 (antibody, human IgG1, kappa, V domains shown)
VH: EVQLLESGGGLVQPGGSLRLSCAASGFTFSDYAMSWVRQAPGKGLEWVSTISDGGTYTYYPDNVKGRFTISRDNSKNTLYLQMNSLRAEDTAVYYCAREWGDYDGFDYWGQGTLVTVSS
VL: DIQMTQSPSSLSASVGDRVTITCRASQEISGYLSWYQQKPGKAPKLLIYAASTLDSGVPSRFSGSGSGTDFTFTISSLQPEDIATYYCLQYDSYPYTFGQGTKLEIKR
notes: Humanized, human IgG1/kappa
With B3, in test [2], the Kd was 0.552 nM, the koff turned out to be 0.006 s⁻¹ and the kon is 1.09e+07 M⁻¹ s⁻¹.

B4: Sh24C05-46 (antibody, human IgG1, kappa, V domains shown)
VH: EVQLLESGGGLVQPGGSLRLSCAASGFTFSDYAMSWVRQAPGKGLEWVSTISDGGTYTYYPDNVKGRFTISRDNSKNTLYLQMNSLRAEDTAVYYCAREWGDYDGFDYWGQGTLVTVSS
VL: DIQMTQSPSSLSASVGDRVTITCRASQEISGYLSWYQQKPGKAPKLLIYAASTLDSGVPSRFSGSGSGTDFTLTISSLQPEDFATYYCLQYDSYPYTFGQGTKLEIKR
notes: Humanized, human IgG1/kappa
As to B4, in test [2], the Kd amounted to 0.551 nM, the koff worked out at 0.0044 s⁻¹ and the kon is 7.99e+06 M⁻¹ s⁻¹.

B5: Sh24C05-40 (antibody, human IgG1, kappa, V domains shown)
VH: EVQLLESGGGLVQPGGSLRLSCAASGFTFSDYAMSWVRQAPGKGLEWVSTISDGGTYTYYPDNVKGRFTISRDNSKNTLYLQMNSLRAEDTAVYYCAREWGDYDGFDYWGQGTLVTVSS
VL: DIQLTQSPSFLSASVGDRVTITCRASQEISGYLSWYQQKPGKAPKLLIYAASTLDSGVPSRFSGSGSGTEFTLTISSLQPEDFATYYCLQYDSYPYTFGQGTKLEIKR
notes: Humanized, human IgG1/kappa
As for B5, in test [2], the Kd is 0.503 nM, the koff came to 0.0106 s⁻¹ and the kon was found to be 2.11e+07 M⁻¹ s⁻¹.

B6: Sh24C05-44 (antibody, human IgG1, kappa)
heavy: not shown
light: DIQMTQSPSSLSASVGDRVTITCRASQEISGYLSWYQQKPGKAPKLLIYAASTLDSGVPSRFSGSGSGTDFTLTISSLQPEDFATYYCLQYDSYPYTFGQGTKLEIKRTVAAPSVFIFPPSDEQLKSGTASVVCLLNNFYPREAKVQWKVDNALQSGNSQESVTEQDSKDSTYSLSSTLTLSKADYEKHKVYACEVTHQGLSSPVTKSFNRGEC
notes: Humanized, human IgG1/kappa
On to B6, for which, in test [2], the Kd was 0.644 nM, the off-rate (koff) worked out at 0.00512 s⁻¹ and the kon came to 7.96e+06 M⁻¹ s⁻¹.

B7: Sh24C05-39 (antibody, human IgG1, kappa, V domains shown)
VH: EVQLVESGGGLVKPGGSLRLSCAASGFTFSDYAMSWVRQAPGKGLEWVSTISDGGTYTYYPDNVKGRFTISRDNAKNSLYLQMNSLRAEDTAVYYCAREWGDYDGFDYWGQGTLVTVSS
VL: DIQLTQSPSFLSASVGDRVTITCRASQEISGYLSWYQQKPGKAPKLLIYAASTLDSGVPSRFSGSGSGTEFTLTISSLQPEDFATYYCLQYDSYPYTFGQGTKLEIKR
notes: Humanized, human IgG1/kappa
Regarding B7, in test [2], the Kd came to 0.819 nM, the dissociation rate constant (koff) amounted to 0.00967 s⁻¹ and the kon was 1.18e+07 M⁻¹ s⁻¹.

B8: Sh24C05-49 (antibody, human IgG1, kappa, V domains shown)
VH: QVQLVESGGGLVKPGGSLRLSCAASGFTFSDYAMSWIRQAPGKGLEWVSTISDGGTYTYYPDNVKGRFTISRDNAKNSLYLQMNSLRAEDTAVYYCAREWGDYDGFDYWGQGTLVTVSS
VL: DIQMTQSPSSLSASVGDRVTITCRASQEISGYLSWYQQKPGKAPKLLIYAASTLDSGVPSRFSGSGSGTDFTLTISSLQPEDFATYYCLQYDSYPYTFGQGTKLEIKR
notes: Humanized, human IgG1/kappa
As to B8, in test [2], the Kd was 0.416 nM, the koff came to 0.0017 s⁻¹ and the kon was found to be 4.08e+06 M⁻¹ s⁻¹.

B9: Sh24C05-35 (antibody, human IgG1, kappa, V domains shown)
VH: QVQLVESGGGVVQPGRSLRLSCAASGFTFSDYAMSWVRQAPGKGLEWVATISDGGTYTYYPDNVKGRFTISRDNSKNTLYLQMSSLRAEDTAVYYCAREWGDYDGFDYWGQGTLVTVSS
VL: DIQMTQSPSSLSASVGDRVTITCRASQEISGYLSWYQQKPGKAPKLLIYAASTLDSGVPSRFSGSGSGTDFTFTISSLQPEDIATYYCLQYDSYPYTFGQGTKLEIKR
notes: Humanized, human IgG1/kappa
As for B9, in test [2], the Kd came to 0.655 nM, the off-rate (koff) amounted to 0.00553 s⁻¹ and the kon was determined as 8.44e+06 M⁻¹ s⁻¹.

B10: Sh24C05-42 (antibody, human IgG1, kappa)
heavy: not shown
light: DIQLTQSPSFLSASVGDRVTITCRASQEISGYLSWYQQKPGKAPKLLIYAASTLDSGVPSRFSGSGSGTEFTLTISSLQPEDFATYYCLQYDSYPYTFGQGTKLEIKRTVAAPSVFIFPPSDEQLKSGTASVVCLLNNFYPREAKVQWKVDNALQSGNSQESVTEQDSKDSTYSLSSTLTLSKADYEKHKVYACEVTHQGLSSPVTKSFNRGEC
notes: Humanized, human IgG1/kappa
Turning to B10, in test [2], the dissociation constant Kd amounted to 0.927 nM, the koff is 0.00682 s⁻¹ and the kon worked out at 7.35e+06 M⁻¹ s⁻¹.

B11: Sh24C05-41 (antibody, human IgG1, kappa, V domains shown)
VH: QVQLVESGGGVVQPGRSLRLSCAASGFTFSDYAMSWVRQAPGKGLEWVATISDGGTYTYYPDNVKGRFTISRDNSKNTLYLQMSSLRAEDTAVYYCAREWGDYDGFDYWGQGTLVTVSS
VL: DIQLTQSPSFLSASVGDRVTITCRASQEISGYLSWYQQKPGKAPKLLIYAASTLDSGVPSRFSGSGSGTEFTLTISSLQPEDFATYYCLQYDSYPYTFGQGTKLEIKR
notes: Humanized, human IgG1/kappa
Take B11: in test [2], the dissociation constant (Kd) worked out at 0.669 nM, the dissociation rate constant (koff) was 0.0121 s⁻¹ and the kon is 1.81e+07 M⁻¹ s⁻¹.

B12: Sh24C05-38 (antibody, human IgG1, kappa)
heavy: not shown
light: DIQLTQSPSFLSASVGDRVTITCRASQEISGYLSWYQQKPGKAPKLLIYAASTLDSGVPSRFSGSGSGTEFTLTISSLQPEDFATYYCLQYDSYPYTFGQGTKLEIKRTVAAPSVFIFPPSDEQLKSGTASVVCLLNNFYPREAKVQWKVDNALQSGNSQESVTEQDSKDSTYSLSSTLTLSKADYEKHKVYACEVTHQGLSSPVTKSFNRGEC
notes: Humanized, human IgG1/kappa
Turning to B12, in test [2], the Kd came out at 0.567 nM, the koff stood at 0.0154 s⁻¹ and the kon came out at 2.71e+07 M⁻¹ s⁻¹.

B13: Sh24C05-37 (antibody, human IgG1, kappa, V domains shown)
VH: QVQLVESGGGLVKPGGSLRLSCAASGFTFSDYAMSWIRQAPGKGLEWVSTISDGGTYTYYPDNVKGRFTISRDNAKNSLYLQMNSLRAEDTAVYYCAREWGDYDGFDYWGQGTLVTVSS
VL: DIQMTQSPSSLSASVGDRVTITCRASQEISGYLSWYQQKPGKAPKLLIYAASTLDSGVPSRFSGSGSGTDFTFTISSLQPEDIATYYCLQYDSYPYTFGQGTKLEIKR
notes: Humanized, human IgG1/kappa
For the molecule B13, in test [2], the Kd was 0.374 nM, the koff worked out at 0.002 s⁻¹ and the kon came to 5.94e+06 M⁻¹ s⁻¹.

B14: Sh24C05-48 (antibody, human IgG1, kappa)
heavy: not shown
light: DIQMTQSPSSLSASVGDRVTITCRASQEISGYLSWYQQKPGKAPKLLIYAASTLDSGVPSRFSGSGSGTDFTLTISSLQPEDFATYYCLQYDSYPYTFGQGTKLEIKRTVAAPSVFIFPPSDEQLKSGTASVVCLLNNFYPREAKVQWKVDNALQSGNSQESVTEQDSKDSTYSLSSTLTLSKADYEKHKVYACEVTHQGLSSPVTKSFNRGEC
notes: Humanized, human IgG1/kappa
Regarding B14, in test [2], the equilibrium dissociation constant (Kd) came out at 0.562 nM, the koff was determined as 0.0049 s⁻¹ and the kon stood at 8.72e+06 M⁻¹ s⁻¹.

B15: Sh24C05-47 (antibody, human IgG1, kappa, V domains shown)
VH: QVQLVESGGGVVQPGRSLRLSCAASGFTFSDYAMSWVRQAPGKGLEWVATISDGGTYTYYPDNVKGRFTISRDNSKNTLYLQMSSLRAEDTAVYYCAREWGDYDGFDYWGQGTLVTVSS
VL: DIQMTQSPSSLSASVGDRVTITCRASQEISGYLSWYQQKPGKAPKLLIYAASTLDSGVPSRFSGSGSGTDFTLTISSLQPEDFATYYCLQYDSYPYTFGQGTKLEIKR
notes: Humanized, human IgG1/kappa
Regarding B15, in test [2], the Kd worked out at 0.553 nM, the koff came to 0.00441 s⁻¹ and the kon was 7.98e+06 M⁻¹ s⁻¹.

B16: Sh24C05-43 (antibody, human IgG1, kappa, V domains shown)
VH: QVQLVESGGGLVKPGGSLRLSCAASGFTFSDYAMSWIRQAPGKGLEWVSTISDGGTYTYYPDNVKGRFTISRDNAKNSLYLQMNSLRAEDTAVYYCAREWGDYDGFDYWGQGTLVTVSS
VL: DIQLTQSPSFLSASVGDRVTITCRASQEISGYLSWYQQKPGKAPKLLIYAASTLDSGVPSRFSGSGSGTEFTLTISSLQPEDFATYYCLQYDSYPYTFGQGTKLEIKR
notes: Humanized, human IgG1/kappa
As for B16, in test [2], the Kd turned out to be 0.582 nM, the koff amounted to 0.00358 s⁻¹ and the kon was determined as 6.16e+06 M⁻¹ s⁻¹.
